# Assay results: publication doi:10.1101/2021.07.08.451670
# Target: P-GltPh (S279E/D405N) (UniProt O59010)
# Assay: cryo-EM structure
substance,measurement,value
P-GltPh (S279E/D405N) (from UniProt O59010 1-417) (natural protein),stoichiometry N,3
